Each block holds one molecule with its values, some of them ahead of it.
What was measured:
[1] = biological target: peripheral lymph node addressin (PNAd) expressed on CHO cells; test: cell-based ELISA on fixed CHO-PNAd cells, HRP-conjugated secondary antibody, TMB, OD450
[2] = biological target: peripheral lymph node addressin (PNAd) expressed on CHO cells; test: cell-based ELISA on fixed CHO-PNAd cells, antibody titrated 1 ng/ml to 300 ug/ml, fitted curve
[3] = biological target: peripheral lymph node addressin (PNAd) expressed on CHO cells; test: cell-based ELISA on fixed CHO-PNAd cells; compared with the reference MECA79

EC50 (read off the curve) [1]: 5 µg/mL | Kd [2]: 1.41 nM
Molecule: MECA79 monoclonal antibody

EC50 (read off the curve) [1]: 4 µg/mL | binding affinity higher than MECA79 (percent) [3]: 30% | Kd [2]: 0.97 nM
B1: MHA112 monoclonal antibody (mAb) (antibody, mouse IgM, V domains shown)
VH: QVQLKESGPGLVAPSQSLSITCTVSGFSLTSYGVDWVRQPPGKGLEWLGVIWGGGSTNYNSALMSRLSISKDNSKSQVFLKMNSLQTDDTAMYYCAKHSKGGYFDVWGTGTTVTVSS
VL: EIVLTQSPAITAASLGQKVTITCSASSSVSYMHWYQQKSGTSPKPWIYEISKLASGVPARFSGSGSGTSYSLTISSMEAEDAAIYYCQQWNYPLITFGAGTKLELK

— patent US20210284740A1
